Biological target: biotinylated SARS-CoV-2 spike protein subdomain 1 (S1) (SARS-CoV-2) (UniProt P0DTC2)
Experiment: BLI

Substance | Kd | koff | kon
recombinant human albumin ACE2 genetic fusion with FcRn null-binding albumin sequence (NB-ACE2) (from UniProt Q9BYF1-1 18-740) | 31.7 nM | 0.000209 s⁻¹ | 9640 M⁻¹ s⁻¹
recombinant human albumin ACE2 genetic fusion with wild type albumin sequence (WT-ACE2) (from UniProt Q9BYF1-1 18-740) | 32.8 nM | 0.00028 s⁻¹ | 7860 M⁻¹ s⁻¹

— PMC9508356
